Square brackets hold non-standard residues; d marks the D form. Side chains are listed from the residue outwards. * marks the point of attachment. IR800CW = near-infrared dye IRDye800CW (maleimide); Cy5 = Cy5 fluorescent dye (maleimide); d2Nal = N[C@H](Cc1ccc2ccccc2c1)C(=O)O; Butanoyl(4-Ph) = O=C(CCCc1ccccc1)*; Butanoyl(4-ethynyl) = C#CCCCC(=O)*; hPhe = N[C@@H](CCc1ccccc1)C(=O)O; Nle = CCCC[C@H](N)C(=O)O; Mpa = O=C(O)CCS

Experimental findings from patent US20160175384A1 (published 2016) are described below.

Assay [1] deals with T1, human melanocortin 1 receptor (human, UniProt Q01726 1-317).
T1 construct: whole, on cells; also called hMC1R; MC1R
T1 sequence (Q01726 whole entry): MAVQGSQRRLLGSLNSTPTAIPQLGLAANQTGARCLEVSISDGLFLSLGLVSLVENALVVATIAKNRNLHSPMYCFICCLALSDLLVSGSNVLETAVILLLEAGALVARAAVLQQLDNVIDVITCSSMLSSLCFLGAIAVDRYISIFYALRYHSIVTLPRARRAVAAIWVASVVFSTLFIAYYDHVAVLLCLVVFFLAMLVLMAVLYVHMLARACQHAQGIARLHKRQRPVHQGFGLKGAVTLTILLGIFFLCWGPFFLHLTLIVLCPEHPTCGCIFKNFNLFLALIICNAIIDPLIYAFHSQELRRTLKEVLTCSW
Put plainly: competitive binding vs Eu-NDP-alpha-MSH, time-resolved fluorescence, HCT116/hMC1R cells. As for the experimental part: (§1) Competitive binding assays were performed using HCT116/hMC1R cells and HEK293/hMC4R or hMC5R as previously described, with slight modifications. HCT116/hMC1R cells were plated in black PerkinElmer 96-well plates and HEK293/hMC4R and HEK293/hMC5R cells were plated on SigmaScreen Poly-D-Lysine Coated Plates (SigmaAldrich), all at a density of 10,000-30,000 cells/well. Poly-D-Lysine Coated Plates contain a PDL polymer coating that creates a uniform positive charge at the surface of the plastic, thereby facilitating cell attachment, growth and differentiation. […] Both labeled and non-labeled ligands were diluted in binding media (DMEM, 1 mM 1,10-phenanthroline, 200 mg/L bacitracin, 0.5 mg/L leupeptin, 0.3% BSA). In the case of the triblock polymer micelle solutions, micelles were allowed to equilibrate in solution for a period of 30 min prior to cell addition. Cells were incubated with labeled and non-labeled ligands for 1 hour at 37° C. Following incubation, cells were washed three times with wash buffer (50 mM Tris-HCl, 0.2% BSA, 30 mM NaCl) and 50 µL of enhancement solution (PerkinElmer) was added to each well. Cells were incubated for an additional 30 min at 37° C. prior to reading. […] Competition curves were analyzed with GraphPad Prism software using the sigmoidal dose-response (variable slope) classical equation for nonlinear regression analysis.

Assay [2] has as its target T1, human melanocortin 1 receptor. Kind of assay: competition binding vs Eu-NDP-a-MSH, time-resolved fluorescence, A375/hMC1R cells.
Assay [3] concerns the target MC5R expressed in the kidneys of the xenograft-bearing mice. Kind of assay: cell-based or functional assay.
Assay [4] concerns the target T1, human melanocortin 1 receptor. Put plainly: cell-based or functional assay.
In assay [5] the target is T2, human melanocortin 5 receptor (human, UniProt P33032 1-325).
T2 construct: whole, on cells; also called hMC5R; MC5R
T2 sequence (P33032 whole entry): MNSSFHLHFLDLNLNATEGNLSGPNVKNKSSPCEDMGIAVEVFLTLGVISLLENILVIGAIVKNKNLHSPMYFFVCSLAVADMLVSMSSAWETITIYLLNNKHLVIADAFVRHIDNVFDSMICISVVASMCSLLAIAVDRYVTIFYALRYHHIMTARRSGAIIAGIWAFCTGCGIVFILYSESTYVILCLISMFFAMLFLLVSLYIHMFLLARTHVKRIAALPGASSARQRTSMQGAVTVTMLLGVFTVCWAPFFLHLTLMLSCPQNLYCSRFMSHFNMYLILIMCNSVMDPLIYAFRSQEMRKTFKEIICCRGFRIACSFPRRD
Put plainly: competitive binding vs Eu-NDP-alpha-MSH, time-resolved fluorescence, HEK293/hMC5R cells. As for the experimental part: as §1

Assay [6] addresses T1, human melanocortin 1 receptor. Put plainly: ratio of Ki values (MC5R over MC1R) from Eu-NDP-alpha-MSH competitive binding.
The target in assay [7] is T3, human melanocortin 4 receptor (human, UniProt P32245 1-332).
T3 construct: whole, on cells; also called hMC4R; MC4R
T3 sequence (P32245 whole entry): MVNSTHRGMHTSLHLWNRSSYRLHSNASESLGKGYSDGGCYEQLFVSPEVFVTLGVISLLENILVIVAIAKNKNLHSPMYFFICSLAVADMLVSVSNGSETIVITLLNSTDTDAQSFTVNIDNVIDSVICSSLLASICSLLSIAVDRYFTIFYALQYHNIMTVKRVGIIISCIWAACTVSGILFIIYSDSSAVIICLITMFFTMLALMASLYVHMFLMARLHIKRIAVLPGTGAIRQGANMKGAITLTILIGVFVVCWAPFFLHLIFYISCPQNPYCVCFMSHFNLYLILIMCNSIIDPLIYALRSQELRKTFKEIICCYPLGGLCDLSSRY
Kind of assay: competitive binding vs Eu-NDP-alpha-MSH, time-resolved fluorescence, HEK293/hMC4R cells. The procedure:
as §1

For assay [8], the target named is T1, human melanocortin 1 receptor. Put plainly: ratio of Ki values (MC4R over MC1R) from Eu-NDP-alpha-MSH competitive binding.
For assay [9] the target is unchanged. Put plainly: competitive binding vs Eu-NDP-alpha-MSH, HCT116/hMC1R cells.

Sequence of MC5R expressed in the kidneys of the xenograft-bearing mice (P41149 whole entry): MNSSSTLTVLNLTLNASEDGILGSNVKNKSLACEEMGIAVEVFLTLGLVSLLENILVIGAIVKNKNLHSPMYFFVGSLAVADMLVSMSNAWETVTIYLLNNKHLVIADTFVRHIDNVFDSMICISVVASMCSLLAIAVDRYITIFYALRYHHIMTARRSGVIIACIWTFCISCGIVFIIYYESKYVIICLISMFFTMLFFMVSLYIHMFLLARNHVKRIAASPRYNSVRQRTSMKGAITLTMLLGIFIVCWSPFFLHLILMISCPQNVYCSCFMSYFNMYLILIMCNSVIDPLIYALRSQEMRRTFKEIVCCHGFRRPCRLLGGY

B1: 4-phenylbutyryl-His-DPhe-Arg-Trp-NH2 (peptide)
peptide: {Butanoyl(4-Ph)}-H[dF]RW-NH2
notes: Synthetic peptidomimetic; also called compound 1
As a reminder, the Ki is the equilibrium dissociation constant of an inhibitor or competing ligand from its target. A high value points to weaker binding. In assay [1], B1 gave a Ki of 0.17 nM.

B2: 4-phenylbutyryl-His-DPhe-Arg-Trp-Gly-Lys(Mpr-IR800CW)-NH2 (peptide)
peptide: {Butanoyl(4-Ph)}-H[dF]RWGK([Mpa-IR800CW])-NH2
notes: Near-infrared dye conjugate of the MC1R ligand; also called MC1RL-800; MC1RL-800 probe
Take B2: in [2], the affinity corresponds to a Ki of 0.4 nM. In addition, the “renal uptake of MC1RL-800 after co-injection of 1 nmol/kg MC4R/5R-selective ligand (SEQ ID NO:10), compared to control animals, 2 hr after injection” value in [3] came to 1.56 fold. Moreover, in assay [4], the “probe-related fluorescence signal in A375/MC1R tumors after co-injection of 0.25 ug NDP-a-MSH, relative to the unblocked tumor, 2 hr after injection” value amounted to 1.54 fold and the “probe-related fluorescence signal in A375 tumor after co-injection of 0.25 ug NDP-a-MSH, relative to the unblocked tumor, 2 hr after injection” value was found to be 1.4 fold.
For the molecule Ac-[hPhe]H[dF]RW-NH2 (Synthetic; also called compound 2) [Ac-Homophenylalanine-His-DPhe-Arg-Trp-NH2], the Ki in assay [5] came to 58.2 nM; in [1], 1.77 nM.

B3: H-Tyr-Val-Nle-Gly-His-DNal(2′)-Arg-DTrp-Asp-Arg-Phe-Gly-NH2 (peptide)
peptide: YVLGHXRWDRFG
modifications: Nle; DNal(2′); DTrp; C-terminal amide (NH2)
notes: Synthetic; also called compound 5; ligand 5
B3 registered a Ki in assay [5] of 0.76 nM.

B4: H-Tyr-Val-Nle-Gly-His-DNal(2′)-Arg-DPhe-Asp-Arg-Phe-Gly-NH2 (peptide)
peptide: H-YV[Nle]GH[d2Nal]R[dF]DRFG-NH2
SMILES: CCCC[C@H](NC(=O)[C@@H](NC(=O)[C@@H](N)Cc1ccc(O)cc1)C(C)C)C(=O)NCC(=O)N[C@@H](Cc1c[nH]cn1)C(=O)N[C@H](Cc1ccc2ccccc2c1)C(=O)N[C@@H](CCCNC(=N)N)C(=O)N[C@H](Cc1ccccc1)C(=O)N[C@@H](CC(=O)O)C(=O)N[C@@H](CCCNC(=N)N)C(=O)N[C@@H](Cc1ccccc1)C(=O)NCC(N)=O
notes: Synthetic; also called compound 7; ligand 7
Turning to B4, the Ki in assay [5] was found to be 0.71 nM; in [1], 5.64 nM; in assay [7], 0.77 nM. In [6], the “1R/5R (selectivity ratio against MC5R)” value amounted to 0.13. Further, the “1R/4R (selectivity ratio against MC4R)” value in assay [8] is 0.13.

B5: 4-phenylbutyryl-His-DPhe-Arg-Trp-Gly-Lys(hex-5-ynoyl)-NH2 (peptide)
peptide: {Butanoyl(4-Ph)}-H[dF]RWGK(Butanoyl(4-ethynyl))-NH2
SMILES: C#CCCCC(=O)NCCCC[C@H](NC(=O)CNC(=O)[C@H](Cc1c[nH]c2ccccc12)NC(=O)[C@H](CCCNC(=N)N)NC(=O)[C@@H](Cc1ccccc1)NC(=O)[C@H](Cc1c[nH]cn1)NC(=O)CCCc1ccccc1)C(N)=O
notes: Synthetic; alkyne-functionalised form of compound 1; also called compound 4
Consider B5, for which the values for the Ki in assay [9] and in assay [1] were 1.17 nM and 0.24 nM, respectively.

B6: H-Lys(hex-5-ynoyl)Tyr-Val-Nle-Gly-His-DNal(2′)-Arg-DPhe-Asp-Arg-Phe-Gly-NH2 (peptide)
peptide: H-K(Butanoyl(4-ethynyl))YV[Nle]GH[d2Nal]R[dF]DRFG-NH2
SMILES: C#CCCCC(=O)NCCCC[C@H](N)C(=O)N[C@@H](Cc1ccc(O)cc1)C(=O)N[C@H](C(=O)N[C@@H](CCCC)C(=O)NCC(=O)N[C@@H](Cc1c[nH]cn1)C(=O)N[C@H](Cc1ccc2ccccc2c1)C(=O)N[C@@H](CCCNC(=N)N)C(=O)N[C@H](Cc1ccccc1)C(=O)N[C@@H](CC(=O)O)C(=O)N[C@@H](CCCNC(=N)N)C(=O)N[C@@H](Cc1ccccc1)C(=O)NCC(N)=O)C(C)C
notes: Synthetic; alkyne analogue of ligand 7; also called compound 8; ligand 8
For the molecule B6, the Ki was 3.9 nM in assay [5], 4.19 nM in assay [1] and 4.4 nM in [7]. The “1R/5R (selectivity ratio against MC5R)” value in assay [6] stood at 0.93. For the same molecule, in assay [8], the “1R/4R (selectivity ratio against MC4R)” value was determined as 1.05.

B7: MC1R-Cy5 probe (peptide)
peptide: {Butanoyl(4-Ph)}-H[dF]RWGK([Mpa-Cy5])-NH2
notes: also called Cy5 conjugated ligand; MC1R-635 probe
In [2], B7 had an inhibitory constant (Ki) of 0.3 nM.
